Test results reported in patent US11466066B2, “Variants of human BMP7 protein” (ELI LILLY AND COMPANY, priority 2017, dated 2022).

Tests used:
[1] = tested on: MFc7 mouse renal myofibroblasts; experiment: Alkaline phosphatase stimulation in MFc7 cells; type: cell-based; details: 1 μg/ml pro-BMP7, 1 μM ATRA, 48 hours
Protocol: 3T3-L1 fibroblasts and MFc7 mouse renal myofibroblasts may be grown essentially as described in Example 2 above. After 48 hours the cells may be washed with PBS prior to the addition of either DMEM/2% dialyzed FBS or OPTI-MEM/2% dialyzed FBS medium containing control vehicle, 1 μg/ml human proBMP7 protein, 1 μM ATRA or a combination of both human BMP7 protein (1 μg/ml) and ATRA (1 μM) may be added for 48 hours. After treatment the cells may be rinsed with PBS and stored at −80° C. for approximately 20 minutes. The cells may be thawed at 37° C. for 30 minutes and 100 μl of PNPP may be added to every well. The plate may be incubated at 37° C. for 1 hour. The absorbance at 405 nm may be read on a plate reader.

[2] = tested on: MFc7 mouse renal myofibroblasts; experiment: MFc7 bioassay; type: cell-based; details: EC50 of wild type BMP7 protein/EC50 of the variant; multiple amino acid changes (Table 3)
Protocol: MFc7 mouse renal myofibroblasts (mouse kidney fibroblast cell line) may be maintained under routine cell culture conditions in OPTI-MEM/10% FBS medium. The cells may be plated in 10 cm tissue culture plates at a seeding density of 500,000 cells/plate. After approximately 48 hours, the cells may be washed with phosphate buffered saline (PBS) prior to the addition of OPTI-MEM/2% dialyzed fetal bovine serum (FBS) medium containing 1 μg/ml BMP7 protein or 1 μg/ml of a BMP7 protein variant and incubated for 48 hours. After treatment the cells may be rinsed with PBS and stored at −80° C. for 20 minutes. After thawing the cells at 37° C. for 30 minutes 100 μl of para-nitrophenyl phosphate (PNPP) may be added. The plate may be incubated at 37° C. for 1 hour. The absorbance at 405 nm may be read utilizing a plate reader. The average relative potency (EC50 of wild type BMP7 protein/EC50 of the BMP7 protein variant) of certain human BMP7 protein variants of the present invention may be calculated based on such readings.

DLD1 C5 tumor xenografts = experiment: DLD1 C5 mouse xenograft tumor model; type: in vivo; details: F9 IP 0.04 mg/kg MWF for 3 weeks followed by 3 weeks irinotecan 20 mg/kg M and Th
Protocol: Female athymic nude mice age 6- to 7-weeks old are available commercially, including from Harlan Laboratories (Indianapolis, Ind.). The mice are allowed to acclimate for one week and fed ad libitum on a normal low fat (4.5%) diet, which may be continued for the duration of the study. Tumor cells are available for purchase from ATCC and may be cultured in cell culture media such as RPMI 1640 (Life Technologies) with L-glutamine, 25 mM HEPES supplemented with 10% FBS and 1 mM Na Pyruvate. Cells may be detached, washed with serum free medium and then resuspended at a final concentration of 50×10^6 cells/mL in serum free RPMI 1640. Tumor cells, approximately 5×106 may be injected subcutaneously in the rear flank of subject mice in a 1:1 mixture of serum free growth medium and Matrigel (Becton Dickinson, Bedford, Mass.). Tumor and body weight measurements may be performed twice weekly. Prior to treatment, mice can be randomized based on tumor size using a randomization algorithm. Treatments may be started when the average tumor volume reaches 100 mm3. […]
All test or control proteins are prepared in phosphate Buffered Saline (PBS) prior to dose. Tumor size may be determined by caliper measurements. […] Log volume data can be analyzed with two-way repeated measures ANOVA by time and treatment using SAS PROC MIXED software (SAS Institutes Inc, Cary, N.C.). […]

| Molecule | fold change in alkaline phosphatase stimulation relative to control vehicle treated cells [1] [fold] | Average Relative Potency [2] | tumor response (DLD1 C5 tumor xenografts) |
| --- | --- | --- | --- |
| Wild type human pro-BMP7: homodimers of wild type human mature BMP7 in a non-covalent complex with wild type human pro-domain [reference compound] | 21 | – | – |
| Human mature BMP7 protein variant F9 (SEQ ID NO: 8): homodimer wherein each monomeric subunit has SEQ ID NO: 8 (Y65G/I86L/F93V/N110G/Y128W), disulfide linked (protein, homodimer, disulfide linked) STGSKQRSQNRSKTPKNQEALRMANVAENSSSDQRQACKKHELYVSFRDLGWQDWIIAPEGYAAGYCEGECAFPLNSYMNATNHALVQTLVHVINPETVPKPCCAPTQLGAISVLYFDDSSNVILKKWRNMVVRACGCH | – | 69 | tumor regression |
